Reference: the supplement of paper PMC11908140

B1: library; numbered along this chain (parent)
chain: MRKPRAAVGSGHRKQAASQEGRQKHAKNNSQAKPSACDGLARQPEEVVLQASVSSYHLFRDVAEVTAFRGSLLSWYDQEKRDLPWRRRAEDEMDLDRRAYAVWVSEVMLQQTQVATVINYYTGWMQKWPTLQDLASASLEEVNQLWAGLGYYSRGRRLQEGARKVVEELGGHMPRTAETLQQLLPGVGRYTAGAIASIAFGQATGVVDGNVARVLCRVRAIGADPSSTLVSQQLWGLAQQLVDPARPGDFNQAAMELGATVCTPQRPLCSQCPVESLCRARQRVEQEQLLASGSLSGSPDVEECAPNTGQCHLCLPPSEPWDQTLGVVNFPRKASRKPPREESSATCVLEQPGALGAQILLVQRPNSGLLAGLWEFPSVTWEPSEQLQRKALLQELQRWAGPLPATHLRHLGEVVHTFSHIKLTYQVYGLALEGQTPVTTVPPGARWLTQEEFHTAAVSTAMKKVFRVYQGQQPGTCMGSKRSQVSSPCSRKKPRMGQQVLDNFFRSHISTDAHSLNSAAQ

Variants of: B1
Assay: 8OG:A repair function score (normalized; synonymous = 0, nonsense = -1) (normalized log-likelihood score); higher = more repair activity (WT-like)
Settings: with 8OG:A DNA repair reporter (GFP) in HEK-293 MUTYH KO cells
Method in brief: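 GFP+ (repair) and GFP− bins of viable mCherry+ cells were collected at 72 h from MUTYH knockout HEK-293 cells bearing lentiviral MUTYH cDNA NNN codon-scan libraries in 10 pg/ml doxycycline, co-transfected with an 8OG:A GFP repair reporter and mCherry. Tile amplicons were sequenced, and per-tile Rosace fitness scores were normalized to a repair function score anchored on synonymous and nonsense distributions. Synonymous medians were set to 0 and nonsense to -1, with variants under 300 counts per million at the start removed.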
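Note: cells sorted at 72 h after reporter transfection.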

8OG:A repair function score: each site, then its substitutions
E167: H -0.0317 | W -0.0936 | S -0.0659 | Y 0.0239 | F 0.0154 | Q 0.141 | P -0.768 | A -0.18 | T 0.067 | N 0.0307 | G 0.00335 | C -0.0723 | R -0.0147 | K 0.0784 | I -0.0169 | D 0.018 | L 0.00804 | M -0.0528 | V -0.0209
L169: E -0.261 | I -0.337 | T -0.186 | P -0.645 | K -0.189 | F -0.0235 | R -0.105 | Q -0.00403 | Y -0.104 | A -0.177 | M 0.0203 | G -0.273 | S -0.284 | D -0.386 | C -0.0691 | N -0.172 | H -0.0549 | W -0.0366 | V -0.409
M173: L -0.00175 | P -0.654 | E -1.13 | I 0.0625 | C -0.257 | Q -0.93 | K -0.971 | H -0.672 | D -0.926 | A -0.537 | G -0.965 | F -0.014 | N -0.945
H172: V 0.0577 | F -0.0443 | W -0.21 | G -0.216 | Y -0.0294 | E 0.017 | N -0.0786 | Q 0.0285 | A -0.0729 | I -0.0329 | T 0.0683 | R -0.0155 | K 0.118 | M 0.0264 | P -0.512 | C -0.0393 | L -0.0966 | D -0.0948 | S 0.0204
V165: Q -0.882 | T -0.312 | M -0.283 | A -0.341 | C -0.0561 | Y -1.15 | I -0.0615 | H -1.11 | R -1.07 | W -0.957 | P -1.08 | E -1.11 | L -0.0671 | K -1.13 | N -1.08 | F -0.802 | D -0.91 | G -0.877 | S -0.732
E168: F -0.102 | Q 0.0147 | G -0.24 | W -0.201 | D -0.0557 | A -0.135 | T -0.0102 | I -0.134 | S -0.0595 | Y -0.173 | R -0.0574 | P -0.661 | K -0.00268 | V -0.0341 | N 0.0349 | H -0.103 | M -0.0593 | C 0.0112 | L -0.0373
V166: N -0.124 | P -0.858 | L -0.161 | I 0.0212 | W 0.0741 | A -0.1 | H -0.183 | K -0.116 | C 0.0203 | M -0.0629 | S -0.0616 | Q -0.0914 | G -0.466 | D -0.293 | E -0.327 | R -0.182 | T -0.155 | F -0.0998 | Y -0.184
K164: W -0.0721 | Y -0.0367 | V 0.027
G170: N 0.0595 | H 0.094 | R -0.0153 | S 0.00875 | C -0.00944 | I -0.395 | P -0.872 | E -0.0272 | Y -0.062 | M -0.0605 | W -0.239 | L -0.232 | K -0.0295 | Q 0.0993 | T -0.248 | F -0.166 | V -0.31 | D 0.0788
G171: H -0.42 | P -1.16 | W -0.633 | F -0.571 | T -0.321 | N -0.204 | Q -0.338 | R -0.577 | A -0.18 | D -0.296 | S -0.267 | V -0.443 | E -0.526 | C -0.239 | Y -0.628 | L -0.605 | K -0.84 | M -0.536 | I -0.703
